Assay results published in patent CN111423507A (CAS CENTER FOR EXCELLENCE IN MOLECULAR CELL SCIENCE, dated 2020).

Assays:
[1] = molecular target: A/HongKong/01/1968(H3N2)HA蛋白 (Influenza A virus …, UniProt Q91MA7 17-530); experiment: ELISA, native HA coated at 1 ug/ml, antibody 5 ug/ml
[2] = molecular target: 全长1968HongKong H3N2 HA (义翘神州 Cat:VG40116-NH, N端His标签, 293T表达) (Influenza A virus …, UniProt Q91MA7 17-566); experiment: Western blot of full-length HA expressed in 293T cells
Chain of 全长1968HongKong H3N2 HA (义翘神州 Cat:VG40116-NH, N端His标签, 293T表达) (Q91MA7 17-566 limits assumed): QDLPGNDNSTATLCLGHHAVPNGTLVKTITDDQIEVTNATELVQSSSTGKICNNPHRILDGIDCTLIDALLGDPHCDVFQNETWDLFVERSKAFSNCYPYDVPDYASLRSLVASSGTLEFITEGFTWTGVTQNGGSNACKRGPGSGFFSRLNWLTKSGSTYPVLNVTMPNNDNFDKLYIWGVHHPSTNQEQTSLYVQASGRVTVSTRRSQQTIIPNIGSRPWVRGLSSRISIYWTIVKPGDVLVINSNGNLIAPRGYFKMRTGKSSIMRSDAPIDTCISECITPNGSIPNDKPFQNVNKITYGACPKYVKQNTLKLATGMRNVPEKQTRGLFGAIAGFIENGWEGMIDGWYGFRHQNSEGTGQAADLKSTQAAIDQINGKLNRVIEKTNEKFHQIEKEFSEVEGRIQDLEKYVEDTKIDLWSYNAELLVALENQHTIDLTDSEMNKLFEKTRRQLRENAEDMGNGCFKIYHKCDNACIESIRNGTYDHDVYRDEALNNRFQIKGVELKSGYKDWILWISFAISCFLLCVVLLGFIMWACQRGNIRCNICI

Chain of A/HongKong/01/1968(H3N2)HA蛋白 (Q91MA7 17-530 limits assumed): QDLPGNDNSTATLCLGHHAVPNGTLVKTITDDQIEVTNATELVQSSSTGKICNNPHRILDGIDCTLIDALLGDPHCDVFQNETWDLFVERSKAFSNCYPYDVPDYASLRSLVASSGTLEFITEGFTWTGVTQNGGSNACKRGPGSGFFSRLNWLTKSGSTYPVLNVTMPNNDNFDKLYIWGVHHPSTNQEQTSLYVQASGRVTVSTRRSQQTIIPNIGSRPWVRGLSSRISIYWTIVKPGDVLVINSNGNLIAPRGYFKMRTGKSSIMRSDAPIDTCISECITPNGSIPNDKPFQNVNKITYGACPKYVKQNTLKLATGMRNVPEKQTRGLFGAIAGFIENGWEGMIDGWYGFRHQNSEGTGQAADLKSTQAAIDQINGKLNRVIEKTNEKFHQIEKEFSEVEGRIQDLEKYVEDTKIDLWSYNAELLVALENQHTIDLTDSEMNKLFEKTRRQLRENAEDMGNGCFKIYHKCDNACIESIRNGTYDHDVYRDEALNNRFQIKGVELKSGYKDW

B1: 12mAb (antibody, V domains shown)
VH: EVQLVESGGGLVQPGGSLRLSCAASGFTFSTYNMNWVRQAPGKGLEWLSYISTSSNTIYYADSVKGRFTISRDNAKNSLFLQMNSLRDEDTAVYYCARDRGCSSTNCYVVGYYFYGMDVWGQGTTVTVSS
VL: DIQMTQSPSSVSASVGDRVTITCRASQGISSYLAWYQLKPGRAPKLLIYGATRLQSGVPSRFSGSGSGTDFTLTISGLQPEDFATYHCQQADSFPLTFGQGTRLEIK
**Q.** Which results are given for B1?
**A.** binding result [1]: binds; binding result [2]: binds
